{"source": "paper PMC4579600", "about": "“Structure of HCMV glycoprotein B in the postfusion conformation bound to a neutralizing human antibody” (Nature Communications, 2015)", "key": {"[1]": {"molecular_target": "HCMV glycoprotein B ectodomain ΔNgB-glyco (HCMV (Merlin strain)) (UniProt F5HB53)"}, "[2]": {"molecular_target": "1G2 IgG heavy chain S32A (human)", "assay": "SPR"}, "[3]": {"molecular_target": "1G2 IgG light chain Y50A (human)", "assay": "SPR"}, "[4]": {"molecular_target": "1G2 IgG heavy chain R31S (human)", "assay": "SPR"}, "[5]": {"molecular_target": "1G2 IgG heavy chain F104A (human)", "assay": "SPR"}, "[6]": {"molecular_target": "1G2 IgG heavy chain Y103A (human)", "assay": "SPR"}, "[7]": {"molecular_target": "1G2 IgG (neutralizing human monoclonal antibody) (human)", "assay": "SPR"}, "[8]": {"molecular_target": "1G2 IgG heavy chain Y109A (human)", "assay": "SPR"}, "[9]": {"molecular_target": "1G2 IgG light chain R51A (human)", "assay": "SPR"}, "[10]": {"molecular_target": "1G2 IgG heavy chain N102A (human)", "assay": "SPR"}, "[11]": {"molecular_target": "T1, HCMV virion gB (strain VR1814) (Human cytomegalovirus (HHV-5), strain …, UniProt Q69163, strain)", "T1 construct": "also called gB from virions; source: cushion-purified VR1814 virions, lysed in 1% NP40", "assay": "co-IP; cushion-purified VR1814 virions (500 μg) lysed in 1% NP40, incubated with 10 μg 1G2 for 16 h at 4 °C, Dynabeads Protein A, blot with ITC88", "settings": "one partner purified"}, "[12]": {"molecular_target": "T2, HCMV glycoprotein B ectodomain gB-698glyco (Human cytomegalovirus, Merlin, UniProt F5HB53, Ile156His | His157Arg | Trp240Asn | Tyr242Thr | Cys246Ser | Arg457Ser | …)", "T2 construct": "also called postfusion gB; soluble gB ectodomain; source: CHO lec- cells, stably expressed, secreted, purified (Ni-NTA, SEC)", "assay": "co-IP; soluble gB ectodomain (gB-698glyco) in 1% NP40, incubated with 10 μg 1G2 for 16 h at 4 °C, Dynabeads Protein A, blot with ITC88", "settings": "both partners purified"}, "full-length WT HCMV gB [13]": {"molecular_target": "T3, full-length WT HCMV gB (HCMV (strain ), UniProt F5HB53)", "assay": "cell-based or functional assay"}, "full-length WT HCMV gB [14]": {"molecular_target": "T3, full-length WT HCMV gB", "assay": "flow cytometry on cells; BHK cells electroporated with full-length gB RNA, surface stained with 1 μg antibody per sample, goat anti-human IgG Alexa Fluor 647; gated on viable, dsRNA+ cells", "settings": "one partner purified"}}, "note": "Values joined by “and” are separate entries in the source; they are usually repeats but may differ in a detail not shown here. Identical values can stand only once."}
{"molecule": "1G2 IgG (neutralizing human monoclonal antibody)", "values": [{"measurement": "neutralisation EC50, HCMV TB40/E infection of ARPE-19 epithelial cells", "setting": "[1]", "value": 0.1, "unit": "µg/mL"}]}
{"molecule": "HCMV glycoprotein B ectodomain ΔNgB-glyco (from UniProt F5HB53 25-698) (domain or fragment)", "values": [{"measurement": "Kd", "setting": "[2]", "value": 0.03, "unit": "nM"}, {"measurement": "koff", "setting": "[2]", "value": "1.06e-05", "unit": "s⁻¹"}, {"measurement": "kon", "setting": "[2]", "value": 396000, "unit": "M⁻¹ s⁻¹"}, {"measurement": "Kd", "setting": "[3]", "value": 0.33, "unit": "nM"}, {"measurement": "koff", "setting": "[3]", "value": 0.000118, "unit": "s⁻¹"}, {"measurement": "kon", "setting": "[3]", "value": 357000, "unit": "M⁻¹ s⁻¹"}, {"measurement": "Kd", "setting": "[4]", "value": 0.22, "unit": "nM"}, {"measurement": "koff", "setting": "[4]", "value": "6.07e-05", "unit": "s⁻¹"}, {"measurement": "kon", "setting": "[4]", "value": 273000, "unit": "M⁻¹ s⁻¹"}, {"measurement": "Kd", "setting": "[5]", "value": 1.53, "unit": "nM"}, {"measurement": "koff", "setting": "[5]", "value": 0.00045, "unit": "s⁻¹"}, {"measurement": "kon", "setting": "[5]", "value": 294000, "unit": "M⁻¹ s⁻¹"}, {"measurement": "Kd", "setting": "[6]", "value": 2.36, "unit": "nM"}, {"measurement": "koff", "setting": "[6]", "value": 0.000766, "unit": "s⁻¹"}, {"measurement": "kon", "setting": "[6]", "value": 325000, "unit": "M⁻¹ s⁻¹"}, {"measurement": "Kd", "setting": "[7]", "value": "0.13 nM and 0.17 nM"}, {"measurement": "koff", "setting": "[7]", "value": "3.75e-05 s⁻¹ and 6.36e-05 s⁻¹"}, {"measurement": "kon", "setting": "[7]", "value": "295000 M⁻¹ s⁻¹ and 370000 M⁻¹ s⁻¹"}, {"measurement": "Kd", "setting": "[8]", "value": 0.24, "unit": "nM"}, {"measurement": "koff", "setting": "[8]", "value": "7.67e-05", "unit": "s⁻¹"}, {"measurement": "kon", "setting": "[8]", "value": 324000, "unit": "M⁻¹ s⁻¹"}, {"measurement": "Kd", "setting": "[9]", "value": 0.16, "unit": "nM"}, {"measurement": "koff", "setting": "[9]", "value": "5.11e-05", "unit": "s⁻¹"}, {"measurement": "kon", "setting": "[9]", "value": 327000, "unit": "M⁻¹ s⁻¹"}, {"measurement": "Kd", "setting": "[10]", "value": 1.71, "unit": "nM"}, {"measurement": "koff", "setting": "[10]", "value": 0.000526, "unit": "s⁻¹"}, {"measurement": "kon", "setting": "[10]", "value": 306000, "unit": "M⁻¹ s⁻¹"}]}
{"molecule": "ΔNgB-glyco E292A (from UniProt F5HB53 25-698) (domain or fragment)", "values": [{"measurement": "Kd", "setting": "[7]", "value": 0.82, "unit": "nM"}, {"measurement": "koff", "setting": "[7]", "value": 0.000108, "unit": "s⁻¹"}, {"measurement": "kon", "setting": "[7]", "value": 132000, "unit": "M⁻¹ s⁻¹"}]}
{"molecule": "ΔNgB-glyco F290A (from UniProt F5HB53 25-698) (domain or fragment)", "values": [{"measurement": "Kd", "setting": "[7]", "value": 3.79, "unit": "nM"}, {"measurement": "koff", "setting": "[7]", "value": 0.000249, "unit": "s⁻¹"}, {"measurement": "kon", "setting": "[7]", "value": 66000, "unit": "M⁻¹ s⁻¹"}]}
{"molecule": "ΔNgB-glyco F297A (from UniProt F5HB53 25-698) (domain or fragment)", "values": [{"measurement": "Kd", "setting": "[7]", "value": 13.7, "unit": "nM"}, {"measurement": "koff", "setting": "[7]", "value": 0.000267, "unit": "s⁻¹"}, {"measurement": "kon", "setting": "[7]", "value": 19000, "unit": "M⁻¹ s⁻¹"}]}
{"molecule": "ΔNgB-glyco F298A (from UniProt F5HB53 25-698) (domain or fragment)", "values": [{"measurement": "Kd", "setting": "[7]", "value": 0.26, "unit": "nM"}, {"measurement": "koff", "setting": "[7]", "value": "5.59e-05", "unit": "s⁻¹"}, {"measurement": "kon", "setting": "[7]", "value": 214000, "unit": "M⁻¹ s⁻¹"}]}
{"molecule": "ΔNgB-glyco I299A (from UniProt F5HB53 25-698) (domain or fragment)", "values": [{"measurement": "Kd", "setting": "[7]", "value": 0.58, "unit": "nM"}, {"measurement": "koff", "setting": "[7]", "value": "9e-05", "unit": "s⁻¹"}, {"measurement": "kon", "setting": "[7]", "value": 155000, "unit": "M⁻¹ s⁻¹"}]}
{"molecule": "ΔNgB-glyco N281A (from UniProt F5HB53 25-698) (domain or fragment)", "values": [{"measurement": "Kd", "setting": "[7]", "value": 0.21, "unit": "nM"}, {"measurement": "koff", "setting": "[7]", "value": "4.57e-05", "unit": "s⁻¹"}, {"measurement": "kon", "setting": "[7]", "value": 218000, "unit": "M⁻¹ s⁻¹"}]}
{"molecule": "ΔNgB-glyco N284A (from UniProt F5HB53 25-698) (domain or fragment)", "values": [{"measurement": "Kd", "setting": "[7]", "value": 0.24, "unit": "nM"}, {"measurement": "koff", "setting": "[7]", "value": "7.66e-05", "unit": "s⁻¹"}, {"measurement": "kon", "setting": "[7]", "value": 320000, "unit": "M⁻¹ s⁻¹"}]}
{"molecule": "ΔNgB-glyco N286A (from UniProt F5HB53 25-698) (domain or fragment)", "values": [{"measurement": "Kd", "setting": "[7]", "value": 0.07, "unit": "nM"}, {"measurement": "koff", "setting": "[7]", "value": "4.89e-05", "unit": "s⁻¹"}, {"measurement": "kon", "setting": "[7]", "value": 724000, "unit": "M⁻¹ s⁻¹"}]}
{"molecule": "ΔNgB-glyco N293A/D295A (from UniProt F5HB53 25-698) (domain or fragment)", "values": [{"measurement": "Kd", "setting": "[7]", "value": 0.35, "unit": "nM"}, {"measurement": "koff", "setting": "[7]", "value": "8.43e-05", "unit": "s⁻¹"}, {"measurement": "kon", "setting": "[7]", "value": 240000, "unit": "M⁻¹ s⁻¹"}]}
{"molecule": "ΔNgB-glyco T283A (from UniProt F5HB53 25-698) (domain or fragment)", "values": [{"measurement": "Kd", "setting": "[7]", "value": 0.23, "unit": "nM"}, {"measurement": "koff", "setting": "[7]", "value": "6.99e-05", "unit": "s⁻¹"}, {"measurement": "kon", "setting": "[7]", "value": 310000, "unit": "M⁻¹ s⁻¹"}]}
{"molecule": "ΔNgB-glyco Y280A (from UniProt F5HB53 25-698) (domain or fragment)", "values": [{"measurement": "Kd", "setting": "[7]", "value": 29.3, "unit": "nM"}, {"measurement": "koff", "setting": "[7]", "value": 0.000195, "unit": "s⁻¹"}, {"measurement": "kon", "setting": "[7]", "value": 7000, "unit": "M⁻¹ s⁻¹"}]}
{"molecule": "ΔNgB-glyco YND-AAA (Y280A/N293A/D295A) (from UniProt F5HB53 25-698) (domain or fragment)", "values": [{"measurement": "Kd", "setting": "[7]", "value": 18.7, "unit": "nM"}, {"measurement": "koff", "setting": "[7]", "value": 0.000392, "unit": "s⁻¹"}, {"measurement": "kon", "setting": "[7]", "value": 21000, "unit": "M⁻¹ s⁻¹"}]}
{"molecule": "1G2 IgG (neutralizing human monoclonal antibody) (antibody, V domains shown, IgG1; also called 1G2 mAb; WT 1G2) VH: QLQLQESGPGLVKPSETLSLTCTVSGASIDRSTYYWGWIRQPPGKGLEWIANIYYNGRAVYSPSLKSRVTISVDTSKNQFSLKVRSLTAADTAVYYCATRWNYFFDFDYWGRGTLVTVSS VL: QSVLTQPPSASGTPGQRVTISCSGSSSNIETNYVSWYQQFPGTAPKLLIYRNNQRPSGVPDRFSGSKSGTSASLAISGLRSEDEAEYYCGTWDDNSWVFGGGTKLTVL", "values": [{"measurement": "binding result", "setting": "[11]", "value": "binds"}, {"measurement": "binding result", "setting": "[12]", "value": "binds"}, {"measurement": "neutralisation EC50, gB on virus of HCMV strain 8816 (Ala287), ARPE-19 cells", "setting": "full-length WT HCMV gB [13]", "value": 0.046, "unit": "µg/mL"}, {"measurement": "neutralisation EC50, gB on virus of HCMV strain 8819 (Ala287), ARPE-19 cells", "setting": "full-length WT HCMV gB [13]", "value": 0.485, "unit": "µg/mL"}, {"measurement": "neutralisation EC50, gB on virus of HCMV strain 8819 (Ala287), NHDF cells", "setting": "full-length WT HCMV gB [13]", "value": 0.85, "unit": "µg/mL"}, {"measurement": "neutralisation EC50, gB on virus of HCMV strain 8822 (Ala287), ARPE-19 cells", "setting": "full-length WT HCMV gB [13]", "value": 0.319, "unit": "µg/mL"}, {"measurement": "neutralisation EC50, gB on virus of HCMV strain 8822 (Ala287), NHDF cells", "setting": "full-length WT HCMV gB [13]", "value": 0.485, "unit": "µg/mL"}, {"measurement": "neutralisation EC50, gB on virus of HCMV strain 8824 (Ala287), ARPE-19 cells", "setting": "full-length WT HCMV gB [13]", "value": 0.019, "unit": "µg/mL"}, {"measurement": "neutralisation EC50, gB on virus of HCMV strain 8824 (Ala287), NHDF cells", "setting": "full-length WT HCMV gB [13]", "value": 0.043, "unit": "µg/mL"}, {"measurement": "neutralisation EC50, gB on virus of HCMV strain TM-28175 (Ala287), NHDF cells", "setting": "full-length WT HCMV gB [13]", "value": 0.138, "unit": "µg/mL"}, {"measurement": "neutralisation EC50, gB on virus of HCMV strain TR (Ala287), ARPE-19 cells", "setting": "full-length WT HCMV gB [13]", "value": 0.248, "unit": "µg/mL"}, {"measurement": "neutralisation EC50, gB on virus of HCMV strain TR (Ala287), NHDF cells", "setting": "full-length WT HCMV gB [13]", "value": 0.303, "unit": "µg/mL"}, {"measurement": "binding result", "setting": "full-length WT HCMV gB [14]", "value": "binds"}]}
